Assays:
Test in all cases: GroEL-490 bead column capture of denatured serum, ATP elution, LC-MS-MS
[1] = molecular target: Hpall tiny fragments locus 9C isoform2 (Homo sapiens) (UniProt Q8IZ69)
KIAA0317 (Homo sapiens) = KIAA0317 (Homo sapiens) (UniProt O15033)
[2] = molecular target: MAX dimerization protein 5 (Homo sapiens) (UniProt Q8IWI9)
[3] = molecular target: NYD-SP11 protein (Homo sapiens)
[4] = molecular target: RAN-binding protein 2-like 1 isoform 1 (Homo sapiens) (UniProt Q99666)
[5] = molecular target: Rho GTPase activating protein 21 (Homo sapiens) (UniProt Q5T5U3)
[6] = molecular target: SMC5 protein (Homo sapiens) (UniProt Q8IY18)
[7] = molecular target: WD repeat membrane protein PWDMP (Homo sapiens) (UniProt Q8NEZ3)
[8] = molecular target: albumin precursor (Homo sapiens) (UniProt P02768)
[9] = molecular target: alpha 2 macroglobulin precursor (Homo sapiens) (UniProt P01023)
[10] = molecular target: alpha 2 type XI collagen isoform 3 preproprotein (Homo sapiens) (UniProt P13942)
[11] = molecular target: ankyrin repeat domain 26 (Homo sapiens) (UniProt Q9UPS8)
[12] = molecular target: apical protein of Xenopus-like (Homo sapiens) (UniProt Q13796)
[13] = molecular target: ceruloplasmin (ferroxidase) (Homo sapiens) (UniProt P00450)
[14] = molecular target: dynein, cytoplasmic, heavy polypeptide 2 (Homo sapiens) (UniProt Q8NCM8)
[15] = molecular target: extra spindle poles like 1 (Homo sapiens) (UniProt Q14674)
[16] = molecular target: hemicentin (Homo sapiens) (UniProt Q96RW7)
hemopexin (Homo sapiens) = hemopexin (Homo sapiens) (UniProt P02790)
[17] = molecular target: hypothetical protein FLJ12178 (Homo sapiens)
[18] = molecular target: hypothetical protein XP_378639 (Homo sapiens)
[19] = molecular target: insulin-like 6 precursor (Homo sapiens) (UniProt Q9Y581)
[20] = molecular target: integrin, beta 5 (Homo sapiens) (UniProt P18084)
[21] = molecular target: leucine-rich repeat-containing G protein-coupled receptor 6 (Homo sapiens) (UniProt Q9HBX8)
[22] = molecular target: microfilament and actin filament cross-linker protein isoform a (UniProt Q9UPN3)
[23] = molecular target: p47 protein isoform a (Homo sapiens) (UniProt Q9UNZ2)
[24] = molecular target: peroxisome biogenesis factor 13 (Homo sapiens) (UniProt Q92968)
[25] = molecular target: retinoblastoma binding protein 8 isoform b (Homo sapiens) (UniProt Q99708)
[26] = molecular target: similar to BC331191_1 (Homo sapiens)
[27] = molecular target: similar to ataxin 2 binding protein 1 isoform gamma (Homo sapiens)
[28] = molecular target: solute carrier family 4, anion exchanger, member 2 (erythrocyte membrane protein band 3-liKe 1) (Homo sapiens) (UniProt P04920)
[29] = molecular target: stress 70 protein chaperone, microsome-associated, 60 kDa (Homo sapiens) (UniProt P48723)
[30] = molecular target: transferrin (Homo sapiens) (UniProt P02787)
[31] = molecular target: tripartite motif protein TRIM14 isoform alpha (Homo sapiens) (UniProt Q14142)

GroEL having Aspartate 490 substituted with Cysteine, biotinylated and conjugated onto NeutrAvidin beads, sequence (A1AJ51 whole entry D490C): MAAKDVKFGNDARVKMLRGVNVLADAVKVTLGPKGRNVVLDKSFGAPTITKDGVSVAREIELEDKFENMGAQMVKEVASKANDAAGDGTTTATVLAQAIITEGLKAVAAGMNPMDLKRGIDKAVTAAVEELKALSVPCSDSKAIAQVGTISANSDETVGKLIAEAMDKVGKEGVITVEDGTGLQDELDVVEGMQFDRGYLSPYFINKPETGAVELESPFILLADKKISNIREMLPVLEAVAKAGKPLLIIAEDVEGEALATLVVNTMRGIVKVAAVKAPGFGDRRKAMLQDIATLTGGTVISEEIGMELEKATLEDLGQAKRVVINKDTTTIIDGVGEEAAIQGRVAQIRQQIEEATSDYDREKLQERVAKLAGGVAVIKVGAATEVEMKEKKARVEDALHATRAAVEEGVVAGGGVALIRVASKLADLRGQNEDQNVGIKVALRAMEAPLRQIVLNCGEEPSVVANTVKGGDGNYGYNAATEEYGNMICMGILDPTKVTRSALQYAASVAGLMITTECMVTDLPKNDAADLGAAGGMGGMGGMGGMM
ceruloplasmin (ferroxidase) (Homo sapiens), sequence (P00450 20-1065 limits assumed): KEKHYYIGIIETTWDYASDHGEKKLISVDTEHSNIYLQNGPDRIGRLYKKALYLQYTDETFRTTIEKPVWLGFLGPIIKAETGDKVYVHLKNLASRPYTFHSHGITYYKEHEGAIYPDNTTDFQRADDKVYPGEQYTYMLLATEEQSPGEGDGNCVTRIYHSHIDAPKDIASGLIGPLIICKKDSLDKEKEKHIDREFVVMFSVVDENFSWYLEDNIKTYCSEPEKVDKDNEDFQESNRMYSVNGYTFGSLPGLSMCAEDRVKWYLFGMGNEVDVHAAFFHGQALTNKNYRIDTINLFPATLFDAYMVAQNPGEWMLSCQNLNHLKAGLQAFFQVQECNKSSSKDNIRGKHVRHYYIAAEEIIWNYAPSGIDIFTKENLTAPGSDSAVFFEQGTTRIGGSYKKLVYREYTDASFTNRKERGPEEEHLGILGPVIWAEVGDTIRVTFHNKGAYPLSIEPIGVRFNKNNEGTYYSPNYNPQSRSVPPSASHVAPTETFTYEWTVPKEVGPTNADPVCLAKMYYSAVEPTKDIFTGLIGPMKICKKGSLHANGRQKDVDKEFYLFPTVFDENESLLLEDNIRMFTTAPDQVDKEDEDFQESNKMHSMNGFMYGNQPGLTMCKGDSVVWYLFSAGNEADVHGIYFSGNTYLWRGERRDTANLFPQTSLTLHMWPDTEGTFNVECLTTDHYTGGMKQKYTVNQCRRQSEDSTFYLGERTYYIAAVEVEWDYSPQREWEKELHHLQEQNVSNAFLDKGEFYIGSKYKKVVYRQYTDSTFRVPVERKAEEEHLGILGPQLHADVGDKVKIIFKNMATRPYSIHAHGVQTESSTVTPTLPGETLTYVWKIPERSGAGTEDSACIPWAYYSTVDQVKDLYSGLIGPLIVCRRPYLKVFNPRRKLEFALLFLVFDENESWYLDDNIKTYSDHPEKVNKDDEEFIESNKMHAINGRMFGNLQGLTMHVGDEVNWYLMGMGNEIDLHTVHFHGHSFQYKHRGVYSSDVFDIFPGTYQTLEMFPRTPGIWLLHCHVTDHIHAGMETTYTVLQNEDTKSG
alpha 2 macroglobulin precursor (Homo sapiens), sequence (P01023 24-1474 limits assumed): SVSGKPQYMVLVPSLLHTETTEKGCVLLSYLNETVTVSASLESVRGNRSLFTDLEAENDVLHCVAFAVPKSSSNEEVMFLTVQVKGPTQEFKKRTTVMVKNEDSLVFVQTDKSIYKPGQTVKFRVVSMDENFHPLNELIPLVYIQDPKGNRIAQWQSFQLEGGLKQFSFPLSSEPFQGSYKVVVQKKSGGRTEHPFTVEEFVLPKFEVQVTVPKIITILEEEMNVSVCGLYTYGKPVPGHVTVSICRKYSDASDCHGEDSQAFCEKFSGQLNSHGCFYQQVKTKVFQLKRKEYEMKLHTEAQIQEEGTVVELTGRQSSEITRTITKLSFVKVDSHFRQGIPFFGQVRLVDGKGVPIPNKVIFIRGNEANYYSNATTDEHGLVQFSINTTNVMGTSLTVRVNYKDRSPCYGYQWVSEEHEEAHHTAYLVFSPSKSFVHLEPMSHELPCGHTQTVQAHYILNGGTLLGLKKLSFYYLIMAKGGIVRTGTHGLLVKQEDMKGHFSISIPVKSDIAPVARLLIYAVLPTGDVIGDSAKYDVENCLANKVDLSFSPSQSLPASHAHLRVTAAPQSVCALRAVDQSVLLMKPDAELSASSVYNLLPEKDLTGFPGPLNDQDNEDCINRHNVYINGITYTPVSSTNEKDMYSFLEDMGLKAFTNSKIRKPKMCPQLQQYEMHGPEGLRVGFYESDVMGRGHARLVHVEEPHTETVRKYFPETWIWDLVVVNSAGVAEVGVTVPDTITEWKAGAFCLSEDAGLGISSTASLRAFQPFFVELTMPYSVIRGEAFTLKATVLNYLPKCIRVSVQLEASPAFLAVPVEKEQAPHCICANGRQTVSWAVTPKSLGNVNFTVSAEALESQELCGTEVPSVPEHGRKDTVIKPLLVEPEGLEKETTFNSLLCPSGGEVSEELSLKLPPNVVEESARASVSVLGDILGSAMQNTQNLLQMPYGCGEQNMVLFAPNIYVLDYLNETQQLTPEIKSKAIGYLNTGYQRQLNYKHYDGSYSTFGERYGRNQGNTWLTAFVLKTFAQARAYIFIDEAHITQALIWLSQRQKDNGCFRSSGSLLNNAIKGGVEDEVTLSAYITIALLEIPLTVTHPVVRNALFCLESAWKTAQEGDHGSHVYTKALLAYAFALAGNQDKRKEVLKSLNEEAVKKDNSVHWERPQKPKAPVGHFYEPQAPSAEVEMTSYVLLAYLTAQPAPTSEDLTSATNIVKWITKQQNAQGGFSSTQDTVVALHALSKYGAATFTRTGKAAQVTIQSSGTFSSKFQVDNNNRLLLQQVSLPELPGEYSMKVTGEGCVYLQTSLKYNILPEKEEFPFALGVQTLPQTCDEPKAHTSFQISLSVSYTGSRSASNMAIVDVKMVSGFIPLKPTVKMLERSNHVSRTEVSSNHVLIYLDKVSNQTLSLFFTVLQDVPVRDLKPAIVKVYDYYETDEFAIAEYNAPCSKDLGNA
solute carrier family 4, anion exchanger, member 2 (erythrocyte membrane protein band 3-liKe 1) (Homo sapiens), sequence (P04920 whole entry): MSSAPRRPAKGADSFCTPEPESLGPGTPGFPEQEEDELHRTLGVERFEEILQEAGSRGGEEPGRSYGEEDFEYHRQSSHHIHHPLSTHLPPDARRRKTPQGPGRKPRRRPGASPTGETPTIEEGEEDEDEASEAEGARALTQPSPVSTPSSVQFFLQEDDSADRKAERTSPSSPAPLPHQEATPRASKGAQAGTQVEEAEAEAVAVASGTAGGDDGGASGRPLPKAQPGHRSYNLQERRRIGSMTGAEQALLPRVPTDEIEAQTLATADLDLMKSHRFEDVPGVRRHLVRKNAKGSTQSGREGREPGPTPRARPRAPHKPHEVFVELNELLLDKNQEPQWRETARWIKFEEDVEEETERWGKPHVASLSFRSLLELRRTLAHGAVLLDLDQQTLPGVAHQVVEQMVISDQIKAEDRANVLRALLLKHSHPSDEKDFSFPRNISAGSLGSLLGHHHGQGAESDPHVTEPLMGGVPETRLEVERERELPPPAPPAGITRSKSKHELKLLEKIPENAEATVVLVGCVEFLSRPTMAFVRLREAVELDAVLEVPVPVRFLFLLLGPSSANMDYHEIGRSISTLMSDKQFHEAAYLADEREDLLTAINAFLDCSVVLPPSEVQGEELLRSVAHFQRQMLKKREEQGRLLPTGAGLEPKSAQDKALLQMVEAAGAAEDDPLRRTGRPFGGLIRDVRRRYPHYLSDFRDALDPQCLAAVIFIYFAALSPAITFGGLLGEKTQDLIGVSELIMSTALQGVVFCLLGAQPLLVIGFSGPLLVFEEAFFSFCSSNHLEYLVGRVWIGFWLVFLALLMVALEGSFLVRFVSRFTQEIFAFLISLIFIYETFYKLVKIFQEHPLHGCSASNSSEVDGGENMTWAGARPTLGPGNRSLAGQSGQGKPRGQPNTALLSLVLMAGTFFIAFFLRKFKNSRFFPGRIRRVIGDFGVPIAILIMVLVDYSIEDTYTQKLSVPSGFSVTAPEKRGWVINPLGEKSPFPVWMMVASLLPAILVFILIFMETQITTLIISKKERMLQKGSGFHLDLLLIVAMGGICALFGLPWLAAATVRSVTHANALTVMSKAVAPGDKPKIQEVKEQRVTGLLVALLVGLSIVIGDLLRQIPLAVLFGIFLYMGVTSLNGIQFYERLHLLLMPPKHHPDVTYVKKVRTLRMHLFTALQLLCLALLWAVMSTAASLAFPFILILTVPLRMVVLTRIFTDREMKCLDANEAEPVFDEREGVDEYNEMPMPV
KIAA0317 (Homo sapiens), sequence (O15033 1-789 limits assumed): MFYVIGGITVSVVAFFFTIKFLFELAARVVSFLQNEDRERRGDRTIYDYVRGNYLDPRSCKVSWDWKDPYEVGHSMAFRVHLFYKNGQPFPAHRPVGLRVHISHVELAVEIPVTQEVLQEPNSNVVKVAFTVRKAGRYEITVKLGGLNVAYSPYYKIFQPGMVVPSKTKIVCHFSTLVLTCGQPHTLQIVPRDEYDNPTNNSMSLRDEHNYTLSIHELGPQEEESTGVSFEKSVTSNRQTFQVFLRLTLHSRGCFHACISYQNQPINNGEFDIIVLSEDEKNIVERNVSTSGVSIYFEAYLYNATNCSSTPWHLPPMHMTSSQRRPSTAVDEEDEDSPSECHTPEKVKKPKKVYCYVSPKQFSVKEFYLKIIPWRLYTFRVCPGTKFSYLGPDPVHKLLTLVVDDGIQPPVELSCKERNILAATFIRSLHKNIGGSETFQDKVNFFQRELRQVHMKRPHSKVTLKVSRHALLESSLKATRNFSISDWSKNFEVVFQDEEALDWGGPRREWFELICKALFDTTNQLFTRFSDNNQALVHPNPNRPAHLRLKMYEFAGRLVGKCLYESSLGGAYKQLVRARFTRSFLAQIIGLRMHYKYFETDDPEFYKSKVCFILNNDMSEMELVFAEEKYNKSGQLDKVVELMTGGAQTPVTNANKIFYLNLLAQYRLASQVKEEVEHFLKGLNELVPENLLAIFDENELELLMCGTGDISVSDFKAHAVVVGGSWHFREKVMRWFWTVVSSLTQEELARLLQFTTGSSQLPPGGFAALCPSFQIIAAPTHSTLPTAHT

Spectrum Count [1]: 34 count
Spectrum Count (KIAA0317 (Homo sapiens)): 10 count
Spectrum Count [2]: 33 count
Spectrum Count [3]: 11 count
Spectrum Count [4]: 11 count
Spectrum Count [5]: 11 count
Spectrum Count [6]: 9 count
Spectrum Count [7]: 16 count
Spectrum Count [8]: 475 count
Spectrum Count [9]: 43 count
Spectrum Count [10]: 10 count
Spectrum Count [11]: 9 count
Spectrum Count [12]: 11 count
Spectrum Count [13]: 19 count
Spectrum Count [14]: 10 count
Spectrum Count [15]: 9 count
Spectrum Count [16]: 10 count
Spectrum Count (hemopexin (Homo sapiens)): 35 count
Spectrum Count [17]: 9 count
Spectrum Count [18]: 14 count
Spectrum Count [19]: 13 count
Spectrum Count [20]: 9 count
Spectrum Count [21]: 9 count
Spectrum Count [22]: 10 count
Spectrum Count [23]: 22 count
Spectrum Count [24]: 38 count
Spectrum Count [25]: 22 count
Spectrum Count [26]: 19 count
Spectrum Count [28]: 12 count
Spectrum Count [29]: 12 count
Spectrum Count [30]: 60 count
Spectrum Count [31]: 21 count
Substance: GroEL having Aspartate 490 substituted with Cysteine, biotinylated and conjugated onto NeutrAvidin beads (from UniProt A1AJ51 1-548)
Spectrum Count [27]: 11 count
